Article PMC6561242

Target: α-synuclein 1–140 tagged with the C-terminal Venus fragment (UniProt P37840)
Assay: split reporter

Sequence of VAMP2 tagged with the N-terminal Venus fragment (natural protein) (P63027 2-116): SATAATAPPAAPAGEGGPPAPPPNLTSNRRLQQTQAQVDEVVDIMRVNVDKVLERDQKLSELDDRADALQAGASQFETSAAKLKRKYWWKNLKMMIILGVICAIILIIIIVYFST

In the case of “VAMP2 tagged with the N-terminal Venus fragment (natural protein)”, the Venus complementation fluorescence at boutons relative to α-syn 1–140 is reported as 1 and the Venus complementation fluorescence relative to α-syn 1–140 is reported as 1.
